The labels stand for the following.
T1: SIP2 D1 (Plasmodium falciparum, UniProt C6KSN9 177-235)
T1 sequence: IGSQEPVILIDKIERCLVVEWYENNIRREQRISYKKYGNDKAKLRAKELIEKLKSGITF

B1: GTGCAC_negctrl_site133 (dsDNA)
DNA 1: TCTTTTACAAAAGCTATAACATTCACCACATTATAA
DNA 2: TTATAATGTGGTGAATGTTATAGCTTTTGTAAAAGA
B2: GTGCAC_negctrl_site373 (dsDNA)
DNA 1: AATAAATTAAATAAAAATGTTTAACATAAAATATGA
DNA 2: TCATATTTTATGTTAAACATTTTTATTTAATTTATT
B3: GTGCAC_negctrl_site444 (dsDNA)
DNA 1: TTTTTCACATCTATAAATCATCTAATCAATATTTTT
DNA 2: AAAAATATTGATTAGATGATTTATAGATGTGAAAAA
B4: GTGCAC_negctrl_site69 (dsDNA)
DNA 1: AACAGATAATATAAAAAAAAAAAAAAAAATAATTAA
DNA 2: TTAATTATTTTTTTTTTTTTTTTTATATTATCTGTT
B5: GTGCAC_negctrl_site363 (dsDNA)
DNA 1: ATTAGAGAATCGTAACCCAAATGAACATACTTAAAT
DNA 2: ATTTAAGTATGTTCATTTGGGTTACGATTCTCTAAT
B6: GTGCAC_negctrl_site389 (dsDNA)
DNA 1: TATTATAAATTAATTTTAAACTTTATTATTATGATA
DNA 2: TATCATAATAATAAAGTTTAAAATTAATTTATAATA
B7: GTGCAC_negctrl_site386 (dsDNA)
DNA 1: AAGATAAACTTTTTTAATTAATTTAATTTTTTTTTT
DNA 2: AAAAAAAAAATTAAATTAATTAAAAAAGTTTATCTT
B8: GTGCAC_negctrl_site149 (dsDNA)
DNA 1: GCAAAATATTTAAAATAATATATGTGTATATTTTTA
DNA 2: TAAAAATATACACATATATTATTTTAAATATTTTGC
B9: GTGCAC_negctrl_site187 (dsDNA)
DNA 1: AGGAAACAAGAAATGAAGAATCATGTAGAAGGCCCA
DNA 2: TGGGCCTTCTACATGATTCTTCATTTCTTGTTTCCT
B10: GTGCAC_negctrl_site525 (dsDNA)
DNA 1: TTTCTAAGAAAAAAAAAAAAAAAAAAAAAGATACAA
DNA 2: TTGTATCTTTTTTTTTTTTTTTTTTTTTCTTAGAAA
B11: GTGCAC_negctrl_site471 (dsDNA)
DNA 1: GATTATCTATCGCTTGAATGAAATGAAATCATGCAA
DNA 2: TTGCATGATTTCATTTCATTCAAGCGATAGATAATC
B12: GTGCAC_negctrl_site477 (dsDNA)
DNA 1: AAAAAAAATTTTCTTCTGTTGTATTTTTTATACGTT
DNA 2: AACGTATAAAAAATACAACAGAAGAAAATTTTTTTT
B13: GTGCAC_negctrl_site205 (dsDNA)
DNA 1: TATAATTATTTTTTTCTAAATATTATAAGGTATTCA
DNA 2: TGAATACCTTATAATATTTAGAAAAAAATAATTATA
B14: GTGCAC_negctrl_site515 (dsDNA)
DNA 1: GATATGATGAGATTGATATTCATAAGAGGATTAATG
DNA 2: CATTAATCCTCTTATGAATATCAATCTCATCATATC
B15: GTGCAC_negctrl_site537 (dsDNA)
DNA 1: TGGTAACAGCATAGAAAATGGACAAACGAAATATAA
DNA 2: TTATATTTCGTTTGTCCATTTTCTATGCTGTTACCA
B16: GTGCAC_negctrl_site453 (dsDNA)
DNA 1: AATAGGAAGACTATTTTGTATTTGATTTTTTATTCC
DNA 2: GGAATAAAAAATCAAATACAAAATAGTCTTCCTATT
B17: GTGCAC_negctrl_site536 (dsDNA)
DNA 1: TGAAAAAATATAAAATATAAAATAAAAAATATAAAA
DNA 2: TTTTATATTTTTTATTTTATATTTTATATTTTTTCA
B18: GTGCAC_negctrl_site559 (dsDNA)
DNA 1: TTTTTTATTGTGAAACTGATATTATATTTTTTATAA
DNA 2: TTATAAAAAATATAATATCAGTTTCACAATAAAAAA
B19: GTGCAC_negctrl_site169 (dsDNA)
DNA 1: ATAAGAAGGAACATAAATATATCATAAAAAAAAAAA
DNA 2: TTTTTTTTTTTATGATATATTTATGTTCCTTCTTAT
B20: GTGCAC_negctrl_site53 (dsDNA)
DNA 1: TGAAAAATTACAAAAATAATAAAATGAAATAATAAA
DNA 2: TTTATTATTTCATTTTATTATTTTTGTAATTTTTCA
B21: GTGCAC_negctrl_site530 (dsDNA)
DNA 1: AATATATCAAAAATGATGACATAAATATATTAATTT
DNA 2: AAATTAATATATTTATGTCATCATTTTTGATATATT
B22: GTGCAC_negctrl_site12 (dsDNA)
DNA 1: AATAAAAAAATAAAAAAAAAAAAAAATAAAAAAAAA
DNA 2: TTTTTTTTTATTTTTTTTTTTTTTTATTTTTTTATT
B23: GTGCAC_negctrl_site401 (dsDNA)
DNA 1: AAAAAAATTAAAAATAAAGAAAAAAAAAAAAAAAAA
DNA 2: TTTTTTTTTTTTTTTTTCTTTATTTTTAATTTTTTT
B24: GTGCAC_negctrl_site176 (dsDNA)
DNA 1: TTTAATTAATAATAATATAAATTGTTCTTTTTTTTT
DNA 2: AAAAAAAAAGAACAATTTATATTATTATTAATTAAA
B25: GTGCAC_negctrl_site46 (dsDNA)
DNA 1: TTGTAGGAATTTATTTTGACTGATAATTAATACGTT
DNA 2: AACGTATTAATTATCAGTCAAAATAAATTCCTACAA
B26: GTGCAC_negctrl_site547 (dsDNA)
DNA 1: TTTTACAATAATAAGTAGATCTAAATAAAGATTTAA
DNA 2: TTAAATCTTTATTTAGATCTACTTATTATTGTAAAA
B27: GTGCAC_negctrl_site629 (dsDNA)
DNA 1: TTGTTTTCTTTTTCTTTTCTTTTTCTTTTTTCTTTT
DNA 2: AAAAGAAAAAAGAAAAAGAAAAGAAAAAGAAAACAA
B28: GTGCAC_negctrl_site419 (dsDNA)
DNA 1: GAAGGAAAAGATACGATAAAATAAGATATTAATTTA
DNA 2: TAAATTAATATCTTATTTTATCGTATCTTTTCCTTC
B29: GTGCAC_site10234 (dsDNA)
DNA 1: TAAAACAAAAAAAAGATGCACTATTTATTTTATTAT
DNA 2: ATAATAAAATAAATAGTGCATCTTTTTTTTGTTTTA
B30: GTGCAC_negctrl_site383 (dsDNA)
DNA 1: TTTTGTTTTGTTTTGTTTTGTTTTGTTTTATTTTAT
DNA 2: ATAAAATAAAACAAAACAAAACAAAACAAAACAAAA
B31: GTGCAC_negctrl_site51 (dsDNA)
DNA 1: ATAAAAAATTTAAGTATTTTTTACAAACCTATAAAT
DNA 2: ATTTATAGGTTTGTAAAAAATACTTAAATTTTTTAT
B32: GTGCAC_negctrl_site410 (dsDNA)
DNA 1: TTATCTTAATTGTGATTATAAAGATATTCTTTCTAT
DNA 2: ATAGAAAGAATATCTTTATAATCACAATTAAGATAA
B33: GTGCAC_negctrl_site250 (dsDNA)
DNA 1: TTTTTTTTTTTATATACTGGAAATATATTTAATTTA
DNA 2: TAAATTAAATATATTTCCAGTATATAAAAAAAAAAA
B34: GTGCAC_negctrl_site79 (dsDNA)
DNA 1: TTTTAAAAAAGAAAAAAAAAGGATCAGAGAAATATT
DNA 2: AATATTTCTCTGATCCTTTTTTTTTCTTTTTTAAAA
B35: GTGCAC_site10256 (dsDNA)
DNA 1: AAGGAATGCATATAGGTGCTACACATAAAAATAAAA
DNA 2: TTTTATTTTTATGTGTAGCACCTATATGCATTCCTT
B36: GTGCAC_negctrl_site233 (dsDNA)
DNA 1: TAAACCTTAAAATATTTCTCATGTTTAACTTATATT
DNA 2: AATATAAGTTAAACATGAGAAATATTTTAAGGTTTA
B37: GTGCAC_negctrl_site60 (dsDNA)
DNA 1: AACACAATAAAAATTAAAAATGTTAAGTAAATATAA
DNA 2: TTATATTTACTTAACATTTTTAATTTTTATTGTGTT
B38: GTGCAC_negctrl_site288 (dsDNA)
DNA 1: TATTATTCATAATTTATCTTTTAAATTAAATCACAA
DNA 2: TTGTGATTTAATTTAAAAGATAAATTATGAATAATA
B39: GTGCAC_negctrl_site686 (dsDNA)
DNA 1: TCTTATATGATATTTATTTATTTATTTATTTATTCA
DNA 2: TGAATAAATAAATAAATAAATAAATATCATATAAGA
B40: GTGCAC_negctrl_site320 (dsDNA)
DNA 1: TTTTCTAAAATATTCATAATAAATCAAAAAAAAAAA
DNA 2: TTTTTTTTTTTGATTTATTATGAATATTTTAGAAAA
B41: GTGCAC_negctrl_site504 (dsDNA)
DNA 1: TTTCAAGGATTTAATTTATGGAAACCTTCTTCATTT
DNA 2: AAATGAAGAAGGTTTCCATAAATTAAATCCTTGAAA

In paper PMC11417369, “DNA sequence and chromatin differentiate sequence-specific transcription factor binding in the human malaria parasite Plasmodium falciparum” one finds binding signal data, which are given here for 41 molecules.

In the series the target is T1, SIP2 D1. Kind of series: gcPBM; about 25 ug protein; PBS, 1% milk, 0.2 mg/ml BSA, salmon testes DNA, 0.03% Triton X-100. As to conditions: tags: N-terminal GST (pGEX-4T-1), kept; label: surface-attached array probe.
Turning to B1, the binding signal was 6.79 ln median PBM intensity, better of two orientations. Turning to B2, the binding signal was 6.67 ln median PBM intensity, better of two orientations. As for B3, the figure is 6.76 ln median PBM intensity, better of two orientations.

On to B4, for which the binding signal was 6.71 ln median PBM intensity, better of two orientations. Take B5: the binding signal was 6.72 ln median PBM intensity, better of two orientations. As for B6, the figure is 6.7 ln median PBM intensity, better of two orientations.

With B7, the binding signal was 6.66 ln median PBM intensity, better of two orientations.

In the case of B8, the binding signal is 6.73 ln median PBM intensity, better of two orientations. As for B9, the figure is 6.71 ln median PBM intensity, better of two orientations; as for B10, 6.64 ln median PBM intensity, better of two orientations; as for B11, 6.65 ln median PBM intensity, better of two orientations. Consider B12, for which the binding signal is 6.77 ln median PBM intensity, better of two orientations. For B13, the binding signal was 6.55 ln median PBM intensity, better of two orientations.

In the case of B14, the binding signal was 6.75 ln median PBM intensity, better of two orientations. For the molecule B15, the binding signal was 6.79 ln median PBM intensity, better of two orientations. As for B16, the figure is 6.62 ln median PBM intensity, better of two orientations; as for B17, 6.67 ln median PBM intensity, better of two orientations; as for B18, 6.71 ln median PBM intensity, better of two orientations. As for B19, the figure is 6.73 ln median PBM intensity, better of two orientations; as for B20, 6.68 ln median PBM intensity, better of two orientations. Regarding B21, the binding signal is 6.58 ln median PBM intensity, better of two orientations. In the case of B22, the binding signal is 6.76 ln median PBM intensity, better of two orientations. As to B23, the binding signal was 6.66 ln median PBM intensity, better of two orientations. Take B24: the binding signal is 6.5 ln median PBM intensity, better of two orientations. As for B25, the figure is 6.8 ln median PBM intensity, better of two orientations. B26: the binding signal is 6.73 ln median PBM intensity, better of two orientations. As for B27, the figure is 6.64 ln median PBM intensity, better of two orientations; as for B28, 6.61 ln median PBM intensity, better of two orientations. As for B29, the figure is 9.6 ln median PBM intensity, better of two orientations. In the case of B30, the binding signal is 6.74 ln median PBM intensity, better of two orientations. As to B31, the binding signal was 6.78 ln median PBM intensity, better of two orientations.

B32: the binding signal was 6.56 ln median PBM intensity, better of two orientations. For B33, the binding signal was 6.78 ln median PBM intensity, better of two orientations.

As to B34, the binding signal is 6.69 ln median PBM intensity, better of two orientations.

On to B35, for which the binding signal is 9.67 ln median PBM intensity, better of two orientations. On to B36, for which the binding signal is 6.73 ln median PBM intensity, better of two orientations. For B37, the binding signal was 6.71 ln median PBM intensity, better of two orientations. Take B38: the binding signal was 6.81 ln median PBM intensity, better of two orientations. For the molecule B39, the binding signal was 6.77 ln median PBM intensity, better of two orientations. With B40, the binding signal is 6.79 ln median PBM intensity, better of two orientations.

Turning to B41, the binding signal is 6.53 ln median PBM intensity, better of two orientations.
